In assay [1] the target is T1, recombinant human tau, isoform Tau-F of 441aa (hTau40) (human, UniProt P10636 1-758).
T1 construct: Bought from rPeptide (Bogart, USA); also called full-length tau; rTau
Description: ELISA on recombinant tau (FIG. 15). On the technique in general: In an ELISA, binding on a coated surface is turned into a signal by an enzyme label.

For assay [2], the target named is T1, recombinant human tau, isoform Tau-F of …. Description: ELISA on recombinant tau.
For assay [3], the target named is T2, peptide corresponding to amino acids 226-239 of human tau (226VAVVRpTPPKSPSSA239), cognate epitope of AT180 (human).
T2 peptide: VAVVR[pT]PPKSPSSA
The experiment in a line: direct ELISA on coated peptide.

In assay [4] the target is T1, recombinant human tau, isoform Tau-F of …. Description: direct ELISA, hTau40 coated at 1 µg/ml. How it is done: (§1) 96 well microplates (Costar, Corning, USA) were coated with recombinant Tau protein (hTau40, rPeptide, Bogart, USA) diluted to a concentration of 1 μg/ml in carbonate ELISA coating buffer (50 mM, pH9.6) at 4° C. over night. Non-specific binding sites were blocked for 2 hr at RT with PBS containing 2% BSA (Sigma, Buchs, Switzerland) and 0.5% Tween20. […] EC₅₀ values were estimated by a non-linear regression using GraphPad Prism software (San Diego, USA).
(§2) The EC₅₀ values were estimated by a non-linear regression using GraphPad Prism software.

Assay [5] deals with T3, peptide corresponding to amino acids 333-346 of hTau40 with an additional C-terminal cysteine (human).
T3 peptide: GGGQVEVKSEKLDFC
Description: direct ELISA on coated peptide (legend of FIG. 5).

Assay [6] addresses T1, recombinant human tau, isoform Tau-F of …. Description: direct ELISA, hTau40 coated at 1 µg/ml (legend of FIG. 2). How it is done:
as §1, §2

Assay [7] has the same target. The experiment in a line: direct ELISA, hTau40 coated at 3 µg/ml.
Excerpt: as §2

Assay [8] has the same target. The experiment in a line: direct ELISA, hTau40 coated at 3 µg/ml (legend of FIG. 7).
Excerpt: as §2

The target in assay [9] is T4, His-tagged tau domain II (AA 136-258 of hTau40) (human, UniProt P10636 387-575).
T4 construct: Expressed in E. coli BL21 (DE3) and purified on Ni-NTA
T4 sequence (P10636 other isoform, or with tags, fused parts or gaps): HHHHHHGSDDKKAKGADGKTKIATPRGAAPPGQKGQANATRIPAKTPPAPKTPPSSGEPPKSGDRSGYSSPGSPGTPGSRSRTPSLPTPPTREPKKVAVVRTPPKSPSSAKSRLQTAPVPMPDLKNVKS
Description: Western blot. The procedure: (§3) DNA fragments, synthesized using GeneArt® (Invitrogen), which encode each Tau domain with 6×His tagged at the N-terminus were cloned into the pRSET-A expression vector (Invitrogen), were transfected into E. Coli BL21 (DE3) (New England Biolabs). The expressions of the His-tagged Tau domains were induced by 0.5 mM IPTG for six hours before bacteria were lysed with lysozyme with sonication. The lysate was boiled for five minutes before being further purified with Ni-NTA Superflow Columns (Qiagen). The eluted His-tagged Tau domains were coated on ELISA plates or loaded on polyacrylamide gel for Western Blot. These sequentially overlapping tau domain polypeptides cover the full length of hTau40 (FIG. 13A).
A general note: A western blot detects proteins with antibodies after separation by electrophoresis.

Assay [10] addresses T5, His-tagged tau domain III (AA 235-373 of hTau40) (human, UniProt P10636 552-690).
T5 construct: Expressed in E. coli BL21 (DE3) and purified on Ni-NTA
The experiment in a line: Western blot. How it is done:
as §3

For assay [11], the target named is T6, His-tagged tau domain IV (AA 355-441 of hTau40) (human, UniProt P10636 672-758).
T6 construct: Expressed in E. coli BL21 (DE3) and purified on Ni-NTA
T6 sequence (P10636 other isoform, or with tags, fused parts or gaps): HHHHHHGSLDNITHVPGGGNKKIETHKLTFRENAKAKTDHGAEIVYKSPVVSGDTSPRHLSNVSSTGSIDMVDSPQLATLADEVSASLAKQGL
The experiment in a line: Western blot. How it is done: as §3

In assay [12] the target is T7, bovine serum albumin (BSA) (UniProt P02769 25-607).
T7 construct: Control antigen
T7 sequence (P02769 25-607 limits assumed): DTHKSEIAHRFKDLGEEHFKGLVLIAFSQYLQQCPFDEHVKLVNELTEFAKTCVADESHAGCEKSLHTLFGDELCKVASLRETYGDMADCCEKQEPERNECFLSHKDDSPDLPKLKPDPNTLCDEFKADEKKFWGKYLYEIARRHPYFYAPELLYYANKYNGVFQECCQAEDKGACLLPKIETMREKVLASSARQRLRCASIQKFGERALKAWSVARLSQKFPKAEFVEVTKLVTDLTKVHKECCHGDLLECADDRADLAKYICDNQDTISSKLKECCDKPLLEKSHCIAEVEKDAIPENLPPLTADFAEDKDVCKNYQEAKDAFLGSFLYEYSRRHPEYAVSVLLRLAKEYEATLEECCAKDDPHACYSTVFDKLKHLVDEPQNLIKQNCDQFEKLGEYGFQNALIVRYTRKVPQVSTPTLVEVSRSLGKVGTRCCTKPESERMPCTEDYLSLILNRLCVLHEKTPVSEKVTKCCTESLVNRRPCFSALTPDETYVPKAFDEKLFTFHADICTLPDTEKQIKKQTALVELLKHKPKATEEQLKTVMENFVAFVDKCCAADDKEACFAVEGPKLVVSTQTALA
Description: direct ELISA, plates coated with BSA. The procedure: To validate tau as a recognized target of isolated antibodies direct ELISA assays were performed as described above. […] No binding is observed to BSA (FIG. 10).

Assay [13] has as its target T8, PHFTau, paired helical filaments containing pathologically phosphorylated tau filaments extracted from AD … (human, UniProt P10636-8 1-441, limits assumed, pathologically phosphorylated; sites not given).
T8 construct: Brain extract, aggregated and phosphorylated; also called pathologically modified tau isoforms
Description: direct ELISA, PHFTau coated at 1:100; PHFTau coated at 1:100. The procedure: (§4) ELISA plates were coated with recombinant human tau (hTau40, 1 ug/ml), PHFTau (1:100) and control preparation (1:100), and incubated with varying antibody concentrations.

Assay [14] concerns the target T1, recombinant human tau, isoform Tau-F of …. Description: direct ELISA, hTau40 coated at 1 ug/ml; hTau40 coated at 1 ug/ml. How it is done:
as §1, §4

Substitutions are numbered along the chain they refer to. Numbers in names are those of the source. Non-standard residues stand in square brackets, D forms with d. No end group written: not given here. pT = C[C@@H](OP(=O)(O)O)[C@H](N)C(=O)O

T1 sequence (P10636 other isoform, or with tags, fused parts or gaps limits assumed): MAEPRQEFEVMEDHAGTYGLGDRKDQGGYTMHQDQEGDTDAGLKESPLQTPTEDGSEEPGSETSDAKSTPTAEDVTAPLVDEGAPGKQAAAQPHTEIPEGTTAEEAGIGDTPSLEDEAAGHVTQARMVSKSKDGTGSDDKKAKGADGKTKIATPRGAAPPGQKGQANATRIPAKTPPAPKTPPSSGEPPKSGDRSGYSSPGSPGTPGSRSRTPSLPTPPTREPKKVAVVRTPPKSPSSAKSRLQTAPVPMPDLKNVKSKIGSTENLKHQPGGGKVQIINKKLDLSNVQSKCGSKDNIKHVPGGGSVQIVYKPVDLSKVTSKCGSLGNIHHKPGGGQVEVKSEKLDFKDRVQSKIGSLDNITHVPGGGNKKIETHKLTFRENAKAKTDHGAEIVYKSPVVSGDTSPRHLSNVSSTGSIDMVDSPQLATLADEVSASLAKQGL
T8 sequence (P10636 other isoform, or with tags, fused parts or gaps limits assumed): as above
T5 sequence (P10636 other isoform, or with tags, fused parts or gaps): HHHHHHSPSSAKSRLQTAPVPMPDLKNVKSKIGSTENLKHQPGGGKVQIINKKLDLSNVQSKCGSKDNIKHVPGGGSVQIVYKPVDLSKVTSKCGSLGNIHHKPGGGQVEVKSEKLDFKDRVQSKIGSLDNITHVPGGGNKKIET

B1: ch4E4(N30Q), mouse IgG2a/lambda (antibody, V domains shown)
VH: EVQLVESGGGLVQPGGSLKLSCAASGFNFQISAIHWVRQASGKGLEWVGRIRSKSHNYATLYAASLKGRFTLSRDDSRNTAYLQMSSLQTEDMAVYYCTVLSANYDTFDYWGQGTLVTVSS
VL: SYELTQPPSVSVSPGQTARISCFGDTLPKQYTYWYQQKPGQAPVLVIYKDTERPSGIPERFSGSSSGTTVTLTISGVQAEDEADYYCLSADNSATWVFGGGTKVTVLG
notes: Produced in and purified from CHO cells; also called the modified antibody
In general, EC50 (read off the curve) refers to the concentration that produces a half-maximal response. For the molecule B1, the “fold higher apparent binding affinity relative to the original, glycosylated antibody (ch4E4)” value in [1] is around 4 fold. Besides, in assay [2], the “EC50 (read off the curve)” value is around 0.04 µg/mL.

B2: ch4E4(N30Q) mIgG1 Agly (antibody, V domains shown)
VH: B1 VH
VL: B1 VL
notes: also called ch4E4(N30Q) IgG 1-Agly; mouse chimeric aglycosylated variant of 4E4
Regarding B2, the “EC50 (read off the curve)” value in assay [2] is around 0.04 µg/mL.

B3: recombinant human tau antibody NI-105.4E4 (antibody, V domains shown)
VH: B1 VH with Q30N
VL: SYELTQPPSVSVSPGQTARISCFGDTLPKQYTYWYQQKPGQAPVLVIYKDTERPSGIPERFSGSSSGTTVTLTISGVQAEDEADYYCLSADNSATWVFGGGTKVTVL
In general, EC50 refers to the concentration that produces a half-maximal response. Turning to B3, the binding result in assay [3] is given as “no binding”; in assay [5], “binds”. Also, the EC50 was 2.4 nM in [4] and 2 nM in [6].

B4: chimeric 4E4 (ch4E4), mouse IgG2a/lambda (antibody, V domains shown)
VH: B1 VH with Q30N
VL: B1 VL
modifications: N-glycan on Asn-30 (fully occupied on CHO expression)
notes: also called original, glycosylated antibody
As to B4, the “EC50 (read off the curve)” value in assay [2] was around 0.2 µg/mL.

B5: recombinant human tau antibody NI-105.24B2 (antibody, human IgG1, V domains shown)
VH: QVQLVQSGAEVKKPGASVKVSCKASGYTFVNYIIHWVRQAPGQGLEWMGIINPNGGNTSYAEKFQARVTLTSDTSTSTVYMDLSSLTSEDTAVYYCAVLSPSNPWGQGTTVTVSS
VL: SYELTQPPSVSVSPGQTAGITCSGDALPKQFVYWYQKKPGQAPVLLIYKDTERPSRIPERFSGSTSGTTVALTINGVQAEDEADYYCQSADRSGALWVFGGGTKLTVL
Take B5: the EC50 in [7] turned out to be 6.6 nM; in assay [8], 6 nM.

B6: recombinant human tau antibody NI-105.4A3 (antibody, human IgG1, V domains shown)
VH: QVQLVESGGGAVQPGGSLRLSCAASGFTFSDYAMHWVRQAPGKGLQWVAVISYEGTYKYYADSVKGRFTISRDNSKNTLNLQMSSLRVEDTAVYFCVKARAFASGQRSTSTVPDYWGQGTLVTVSS
VL: SYELTQPPSVSVSPGQTARITCSGDALPKKYAYWYQQKSGQAPVLVIYEDNKRPSGIPERFSGSSSGTVATLTISGAQVDDEADYYCYSTDISGDLRVFGGGTKLTVL
B6: the binding result in [9], in assay [10], in [11] and in assay [12] was “no binding” throughout. For the same molecule, the figures for the EC50 in assay [13] and in [14] were 1.2 nM and 1.4 nM, respectively.

(Values after patent US20130295021A1 (published 2013).)
